The values below come from patent US20090010874A1 (published 2009).

Where a chain is given by its changes, count along the chain named. In names and notes the source's numbering stands.

To fix the notation:
T1: human IL-4 receptor alpha chain on cells (TF-1 cells, primary human T-cell blasts and B cells) (human, UniProt P24394 26-825)
T1 sequence (looked up): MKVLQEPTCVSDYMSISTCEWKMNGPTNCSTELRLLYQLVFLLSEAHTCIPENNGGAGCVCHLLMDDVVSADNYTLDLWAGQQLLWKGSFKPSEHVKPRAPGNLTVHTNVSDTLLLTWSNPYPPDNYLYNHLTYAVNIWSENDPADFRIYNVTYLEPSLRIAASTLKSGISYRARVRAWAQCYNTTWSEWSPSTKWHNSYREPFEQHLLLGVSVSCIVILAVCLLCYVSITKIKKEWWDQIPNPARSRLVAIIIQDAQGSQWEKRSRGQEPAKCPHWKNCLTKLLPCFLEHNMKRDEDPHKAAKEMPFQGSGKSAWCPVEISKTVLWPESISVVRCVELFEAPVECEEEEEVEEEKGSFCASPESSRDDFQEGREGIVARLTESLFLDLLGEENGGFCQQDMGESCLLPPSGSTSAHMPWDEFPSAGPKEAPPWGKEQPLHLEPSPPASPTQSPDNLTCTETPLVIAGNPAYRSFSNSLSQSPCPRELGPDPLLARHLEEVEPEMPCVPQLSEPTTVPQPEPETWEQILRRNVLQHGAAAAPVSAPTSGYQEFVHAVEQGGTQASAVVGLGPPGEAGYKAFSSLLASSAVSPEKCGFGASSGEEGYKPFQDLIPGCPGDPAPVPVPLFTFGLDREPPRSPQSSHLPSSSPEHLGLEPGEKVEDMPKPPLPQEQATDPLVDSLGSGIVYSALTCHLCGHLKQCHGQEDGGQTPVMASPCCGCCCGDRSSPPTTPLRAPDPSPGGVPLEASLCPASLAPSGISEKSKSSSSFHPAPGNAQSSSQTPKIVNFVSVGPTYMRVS

T2: IL-4 receptor (immobilized on BIAcore CM5 chip) (human, UniProt P24394 26-232, limits assumed)
T2 construct: also called IL-4Rα; IL-4 receptor alpha chain
T2 sequence (looked up): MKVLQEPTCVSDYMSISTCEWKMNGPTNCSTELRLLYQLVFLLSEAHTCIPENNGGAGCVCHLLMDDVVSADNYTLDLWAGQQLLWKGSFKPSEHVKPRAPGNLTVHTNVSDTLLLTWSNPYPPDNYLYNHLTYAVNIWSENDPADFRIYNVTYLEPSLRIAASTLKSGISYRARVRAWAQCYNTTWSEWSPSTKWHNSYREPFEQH

B1: IL-4TM-A104C (R121D/Y124D/A104C) PEGylated with 40 kDa branched maleimide-PEG (ligand)
chain: MHKCDITLQEIIKTLNSLTEQKTLCTELTVTDIFAASKNTTEKETFCRAATVLRQFYSHHEKDTRCLGATAQQFHRHKQLIRFLKRLDRNLWGLAGLNSCPVKECNQSTLENFLERLKTIMDEKDSKCSS
modifications: 40 kDa branched maleimide-PEG on Cys 104 (numbered according to wild type IL-4)
B2: IL-4RA (IL-4 double mutein R121D/Y124D, unPEGylated) (ligand)
chain: B1 chain with C105A
notes: also called BAY 16-9996; IL-4DM
B3: IL4-RE-N38C, PEGylated with linear 22 kD mPEG-maleimide (ligand)
chain: B1 chain with N39C, C105A
modifications: linear 22 kD methoxy-polyethylene glycol-maleimide on Cys 38 (numbered according to wild type IL-4)
notes: also called PEG-IL4RE
B4: IL4-RE-S36C, PEGylated with linear 22 kD mPEG-maleimide (ligand)
chain: B1 chain with S37C, C105A
modifications: linear 22 kD methoxy-polyethylene glycol-maleimide on Cys 36 (numbered according to wild type IL-4)
notes: also called PEG-IL4RE
B5: IL4-RE-K37C, PEGylated with linear 22 kD mPEG-maleimide (ligand)
chain: B1 chain with K38C, C105A
modifications: linear 22 kD methoxy-polyethylene glycol-maleimide on Cys 37 (numbered according to wild type IL-4)
notes: also called PEG-IL4RE
B6: IL4-RE-T28C, PEGylated with linear 22 kD mPEG-maleimide (ligand)
chain: B1 chain with T29C, C105A
modifications: linear 22 kD methoxy-polyethylene glycol-maleimide on Cys 28 (numbered according to wild type IL-4)
notes: also called PEG-IL4RE
B7: IL4-RE-N105C, PEGylated with linear 22 kD mPEG-maleimide (ligand)
chain: B1 chain with C105A, N106C
modifications: linear 22 kD methoxy-polyethylene glycol-maleimide on Cys 105 (numbered according to wild type IL-4)
notes: also called PEG-IL4RE
B8: IL4-RE-A104C, PEGylated with linear 22 kD mPEG-maleimide (ligand)
chain: B1 chain
modifications: linear 22 kD methoxy-polyethylene glycol-maleimide on Cys 104 (numbered according to wild type IL-4)
notes: also called PEG-IL4RE
B9: IL4-RE-Q106C, PEGylated with linear 22 kD mPEG-maleimide (ligand)
chain: B1 chain with C105A, Q107C
modifications: linear 22 kD methoxy-polyethylene glycol-maleimide on Cys 106 (numbered according to wild type IL-4)
notes: also called PEG-IL4RE
B10: IL4-RE-T13D (T13D/R121D/Y124D), unPEGylated (ligand)
chain: B1 chain with T14D, C105A
B11: PEGylated T13D-N38C with 40 kDa branched PEG (IL4-RE-T13D-N38C) (ligand)
chain: B1 chain with T14D, N39C, C105A
modifications: 40 kDa branched maleimide-PEG on Cys 38 (numbered according to wild type IL-4)
B12: IL-4TM-N38C (R121D/Y124D/N38C) PEGylated with 40 kDa branched maleimide-PEG (ligand)
chain: B1 chain with N39C, C105A
modifications: 40 kDa branched maleimide-PEG on Cys 38 (numbered according to wild type IL-4)
B13: IL-4TM-A104C (R121D/Y124D/A104C) PEGylated with 30 kDa linear maleimide-PEG (ligand)
chain: B1 chain
modifications: 30 kDa linear maleimide-PEG on Cys 104 (numbered according to wild type IL-4)

For the first experiment, the target named is T1, human IL-4 receptor alpha chain on …. Briefly: cell-based or functional assay.
With B1, the “loss of activity in the TF-1 activity assay against PEGylated 38C” value was approximately 2 fold.

The target is the same in the next experiment. The experiment is described as follows: cell-based or functional assay. This is another data set of the same source.
As to B2, the “TF-1/IL-4 IC50” value worked out at 0.56 nM and the “TF-1/IL-13 IC50” value amounted to 1.17 nM.
Turning to B3, the “TF-1/IL-4 IC50” value stood at 0.7 nM and the “TF-1/IL-13 IC50” value was 1.24 nM.
As to B4, the “TF-1/IL-4 IC50” value stood at 1.2 nM and the “TF-1/IL-13 IC50” value turned out to be 1.21 nM.
On to B5, for which the “TF-1/IL-4 IC50” value came out at 0.82 nM and the “TF-1/IL-13 IC50” value was 1.22 nM.
Regarding B6, the “TF-1/IL-4 IC50” value is 2.35 nM and the “TF-1/IL-13 IC50” value stood at 2.87 nM.
With B7, the “TF-1/IL-4 IC50” value came out at 2.26 nM and the “TF-1/IL-13 IC50” value turned out to be 2.11 nM.
Consider B8, for which the “TF-1/IL-4 IC50” value turned out to be 0.55 nM and the “TF-1/IL-13 IC50” value came out at 1.34 nM.
With B9, the “TF-1/IL-4 IC50” value was 2.44 nM and the “TF-1/IL-13 IC50” value amounted to 1.95 nM.

For the next experiment the target is unchanged. The experiment is described as follows: cell-based or functional assay. This is another data set of the same source.
As for B2, the “B-cell IC50, nM (proliferation to IL-4)” value came to 0.86 nM and the “T-cell blast IC50, nM (proliferation to IL-4)” value (from here on “T-cell blast IC50, nM”) came out at 3.22 nM.
Take B3: the “B-cell IC50, nM (proliferation to IL-4)” value is 3.33 nM and the “T-cell blast IC50, nM” value came out at 9.94 nM.
Take B5: the “B-cell IC50, nM (proliferation to IL-4)” value stood at 3.73 nM and the “T-cell blast IC50, nM” value was 13.9 nM.
For B8, in that order: 3.29 nM and 4.67 nM.

The next experiment shares this target. The experiment is described as follows: cell-based or functional assay. The source holds these as a separate data set.
As to B2, the “Fold increase in IC50 (relative to IL-4DM), primary T cell blasts” value was 1 fold and the “IC50 (nM), primary T cell blast proliferation to IL-4” value (from here on “IC50 (nM) … to IL-4”) amounted to 1.07 nM.
Turning to B10, the “Fold increase in IC50 (relative to IL-4DM), primary T cell blasts” value was 0.67 fold and the “IC50 (nM) … to IL-4” value stood at 0.714 nM.
Take B11: the “Fold increase in IC50 (relative to IL-4DM), primary T cell blasts” value was 3.1 fold and the “IC50 (nM) … to IL-4” value was 3.28 nM.
Take B12: the “Fold increase in IC50 (relative to IL-4DM), primary T cell blasts” value came to 2.3 fold and the “IC50 (nM) … to IL-4” value came to 2.43 nM.
For B1, in that order: 7.4 fold and 8 nM.
For the molecule B13, the “Fold increase in IC50 (relative to IL-4DM), primary T cell blasts” value came out at 4.6 fold and the “IC50 (nM) … to IL-4” value turned out to be 4.93 nM.

The target is the same in another experiment. The experiment is described as follows: cell-based or functional assay. This is another data set of the same source.
Consider B2, for which the “Fold increase in IC50 (relative to IL-4DM), primary B cells” value was 1 fold; the “IC50 (nM), primary B cell proliferation to anti-CD40 and IL-4” value (from here on “IC50 (nM), primary B cell proliferation”) worked out at 1.71 nM.
For the molecule B10, the “Fold increase in IC50 (relative to IL-4DM), primary B cells” value was found to be 0.3 fold; the “IC50 (nM), primary B cell proliferation” value amounted to 0.5 nM.
In the case of B11, the “Fold increase in IC50 (relative to IL-4DM), primary B cells” value came out at 1.4 fold; the “IC50 (nM), primary B cell proliferation” value was 2.43 nM.
For B12 the same measures were 4 fold and 6.85 nM.
Consider B1, for which the “Fold increase in IC50 (relative to IL-4DM), primary B cells” value came to 11.3 fold; the “IC50 (nM), primary B cell proliferation” value amounted to 19.4 nM.
In the case of B13, the “Fold increase in IC50 (relative to IL-4DM), primary B cells” value was found to be 7.6 fold; the “IC50 (nM), primary B cell proliferation” value is 13 nM.

The target of a further experiment is T2, IL-4 receptor (immobilized on BIAcore …). Briefly: BIAcore SPR, IL-4 receptor amine-coupled to CM5 chip, mutein injected, direct binding kinetics. Here is the method: IL-4 receptor was immobilized on a BIAcore CM5 research grade sensor chip through amine coupling. The sensor surface was activated with an EDC/NHS pulse. IL-4 receptor was dissolved in 10 mM acetate buffer (pH 5.0) and injected into flowcell 2 followed by a pulse of 1.0M ethanolamine-HCL to deactivate the surface. The immobilization level for the receptor was ˜300 RU. Flowcell 1 was also activated without a ligand to function as a blank. The Biacore Wizard was used to perform kinetics analysis. Candidate IL4RE antagonists were diluted in HBS-EP (running buffer) and injected at 30 ul/minute flow rate for 3 minutes and a dissociation time of 15 minutes. Regeneration of the chip was performed by two 30 second injections of 10 mM Glycine pH2.5 (flow 100 ul/min) to baseline prior to next injection in the concentration series. Dissociation constant (KD) values were calculated for each candidate based on direct binding kinetics (Table 5).
(In general: In SPR one partner is held on a chip, and binding of the other changes the refractive index at the surface.)
Usually Kd stands for the constant that tells how readily two partners part at equilibrium. Regarding B2, the Kd is 0.11 nM.
Molecule B3 returned a Kd of 0.77 nM.
Same read-out and setting: the result for B4 reads 1.15 nM; that for B5, 0.74 nM.
The same measure, in the same setting: the result for B6 reads 0.89 nM.
B7 yielded a Kd of 0.59 nM. This Kd lies about 1.5-fold lower than the previous one.
B8 yielded a Kd of 0.56 nM.
Molecule B9 registered a dissociation constant Kd of 0.52 nM.
